The values below come from paper PMC3822002 (Chembiochem : a European journal of chemical biology, 2013).

One assay addresses T1, NAE (Homo sapiens, UniProt Q13564+Q8TBC4).
T1 sequence (Q8TBC4 1-463): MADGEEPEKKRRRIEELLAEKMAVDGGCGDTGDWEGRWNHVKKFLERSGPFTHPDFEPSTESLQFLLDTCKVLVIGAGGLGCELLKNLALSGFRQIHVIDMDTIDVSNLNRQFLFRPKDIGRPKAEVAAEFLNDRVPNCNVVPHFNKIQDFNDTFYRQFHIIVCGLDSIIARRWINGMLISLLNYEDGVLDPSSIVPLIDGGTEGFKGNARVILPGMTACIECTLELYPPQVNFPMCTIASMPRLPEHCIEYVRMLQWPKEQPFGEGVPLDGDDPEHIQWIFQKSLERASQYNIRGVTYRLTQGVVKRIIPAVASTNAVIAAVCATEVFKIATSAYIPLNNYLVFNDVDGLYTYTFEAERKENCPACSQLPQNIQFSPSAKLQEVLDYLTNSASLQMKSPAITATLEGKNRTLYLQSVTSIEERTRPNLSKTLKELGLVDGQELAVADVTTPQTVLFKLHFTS
T1 sequence (Q13564 1-534): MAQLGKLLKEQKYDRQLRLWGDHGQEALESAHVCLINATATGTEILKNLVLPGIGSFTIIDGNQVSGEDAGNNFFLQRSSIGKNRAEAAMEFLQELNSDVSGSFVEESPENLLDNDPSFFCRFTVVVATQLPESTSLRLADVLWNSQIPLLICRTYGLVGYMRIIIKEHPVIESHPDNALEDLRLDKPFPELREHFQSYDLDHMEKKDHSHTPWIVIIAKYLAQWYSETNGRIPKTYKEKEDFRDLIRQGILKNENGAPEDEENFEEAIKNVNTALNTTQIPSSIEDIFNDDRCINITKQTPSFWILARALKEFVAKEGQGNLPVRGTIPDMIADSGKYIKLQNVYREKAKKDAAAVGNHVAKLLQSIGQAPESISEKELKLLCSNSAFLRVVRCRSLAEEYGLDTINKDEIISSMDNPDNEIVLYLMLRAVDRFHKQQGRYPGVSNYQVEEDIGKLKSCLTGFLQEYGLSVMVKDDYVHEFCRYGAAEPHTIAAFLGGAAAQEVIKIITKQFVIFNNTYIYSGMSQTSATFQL
The following applies: covalent adduct with the C-terminus of Nedd8; ref [16], [30]; cited from earlier work.

The test system of a further assay is CRL substrates. Particulars: ref [31]–[32]; cited from earlier work.
A further assay concerns tumor growth. Particulars: ref [31]–[32]; cited from earlier work.
The target in assay [1] is Nedd8 activating enzyme (NAE), heterodimer of APPBP1 and Uba3 (UniProt Q13564).

`NS(=O)(=O)OC[C@@H]1C[C@@H](n2ccc3c(N[C@H]4CCc5ccccc54)ncnc32)C[C@@H]1O` [MLN4924]: on NAE, the NAE inhibition entry is “potent inhibitor of NAE”. In addition, in the assay on CRL substrates, the “effect on ubiquitination and degradation of CRL substrates” value is “block ubiquitination and degradation of CRL substrates”. In addition, the “effect on tumor growth” value in the assay on tumor growth is on record as “inhibit tumor growth”.
In the case of “Nedd8 variant ND1 (71LQWFGG76), N-terminal GST fusion (from UniProt Q15843 1-76)”, the K1/2 of the ATP-PPi exchange reaction catalysed by NAE, saturating ATP in assay [1] was 150 µM.
As for “Nedd8 variant ND4 (71RLWFGG76), N-terminal GST fusion (from UniProt Q15843 1-76)”, the K1/2 of the ATP-PPi exchange reaction catalysed by NAE, saturating ATP in assay [1] is 4.5 µM.
Consider “Nedd8 variant ND20 (71ILTFGG76), N-terminal GST fusion (from UniProt Q15843 1-76)”, for which the K1/2 of the ATP-PPi exchange reaction catalysed by NAE, saturating ATP in assay [1] amounted to 0.45 µM.
In turn, “wt Nedd8 (71LALRGG76), N-terminal GST fusion (from UniProt Q15843 1-76) (natural protein)” returned a K1/2 of the ATP-PPi exchange reaction catalysed by NAE, saturating ATP in assay [1] of 1.3 µM.
